The target in data set [1] is T1, His-HuD D (mouse, UniProt Q61701-10 1-371). Kind of data set: competition; competitor; EMSA: 6% native PAGE, 0.5x TBE, 4°C (binding buffer as in cited work); biotin pull-down: 5 mM Tris pH 7.5, 15 mM KCl, 5 mM MgCl2, 0.25 mM DTT, 10% glycerol, 20. Particulars: protein: recombinant, tags: His.
The target of data set [2] is T2, His-HuD A (mouse, UniProt Q61701 1-385). In words: competition; competitor against labeled Ins2L; EMSA: 6% native PAGE, 0.5x TBE, 4°C (binding buffer as in cited work); biotin pull-down: 5 mM Tris pH 7.5, 15 mM KCl, 5 mM MgCl2, 0.25 mM DTT, 10% glycerol, 20. Particulars: protein: recombinant, tags: His. A general note: In EMSA bound probe runs differently from free probe, usually more slowly.
T2 sequence (Q61701 whole entry): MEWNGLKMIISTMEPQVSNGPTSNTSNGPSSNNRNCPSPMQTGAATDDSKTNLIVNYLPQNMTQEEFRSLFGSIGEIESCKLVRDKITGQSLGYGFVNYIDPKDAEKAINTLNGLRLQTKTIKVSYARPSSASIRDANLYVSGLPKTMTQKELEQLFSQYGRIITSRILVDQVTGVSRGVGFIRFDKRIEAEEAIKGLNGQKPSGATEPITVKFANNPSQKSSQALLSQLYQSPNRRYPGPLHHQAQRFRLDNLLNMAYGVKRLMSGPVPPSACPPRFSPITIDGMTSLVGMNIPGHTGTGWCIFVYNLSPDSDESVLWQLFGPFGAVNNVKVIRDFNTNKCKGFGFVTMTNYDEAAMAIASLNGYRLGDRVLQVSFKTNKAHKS

The target of data set [3] is T1, His-HuD D. Kind of data set: competition; competitor; similar to L at low excess, differential at high excess; EMSA: 6% native PAGE, 0.5x TBE, 4°C (binding buffer as in cited work); biotin pull-down: 5 mM Tris pH 7.5, 15 mM KCl, 5 mM MgCl2, 0.25 mM DTT, 10% glycerol, 20. To be noted: protein: recombinant; tags: His; m-fold predicted structure.
In data set [4] the target is T2, His-HuD A. Kind of data set: competition; competitor against labeled Ins2L; similar to L at low excess, differential at high excess; EMSA: 6% native PAGE, 0.5x TBE, 4°C (binding buffer as in cited work); biotin pull-down: 5 mM Tris pH 7.5, 15 mM KCl, 5 mM MgCl2, 0.25 mM DTT, 10% glycerol, 20. Particulars: protein: recombinant; tags: His; m-fold predicted structure.

The target of data set [5] is T1, His-HuD D. Kind of data set: EMSA; EMSA: 6% native PAGE, 0.5x TBE, 4°C (binding buffer as in cited work); biotin pull-down: 5 mM Tris pH 7.5, 15 mM KCl, 5 mM MgCl2, 0.25 mM DTT, 10% glycerol, 20. To be noted: protein: recombinant; tags: His; label: radiolabel (probe); m-fold predicted structure.
Another data set deals with GST-HuD B (mouse, UniProt Q61701-4 1-380). The data set is described as above. Particulars: protein: recombinant; tags: GST; label: radiolabel (probe); m-fold predicted structure.
Sequence of GST-HuD B (Q61701 other isoform, or with tags, fused parts or gaps): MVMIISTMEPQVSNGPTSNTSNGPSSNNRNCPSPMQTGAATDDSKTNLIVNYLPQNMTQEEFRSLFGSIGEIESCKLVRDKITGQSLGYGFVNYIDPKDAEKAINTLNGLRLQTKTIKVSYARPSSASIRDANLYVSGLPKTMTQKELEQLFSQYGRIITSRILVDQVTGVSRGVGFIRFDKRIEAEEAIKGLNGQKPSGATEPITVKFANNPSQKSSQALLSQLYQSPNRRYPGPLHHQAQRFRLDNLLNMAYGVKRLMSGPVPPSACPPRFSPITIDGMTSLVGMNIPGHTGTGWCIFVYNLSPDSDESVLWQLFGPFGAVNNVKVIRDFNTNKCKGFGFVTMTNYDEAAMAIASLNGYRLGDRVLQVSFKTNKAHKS
Data set [6] deals with T2, His-HuD A. The data set is described as above. To be noted: protein: recombinant; tags: His; label: radiolabel (probe); m-fold predicted structure.
The next data set deals with His-HuD B (mouse, UniProt Q61701-4 1-380). The description is as above. Particulars: protein: recombinant; tags: His; label: radiolabel (probe); m-fold predicted structure.

T1 sequence (Q61701 other isoform, or with tags, fused parts or gaps): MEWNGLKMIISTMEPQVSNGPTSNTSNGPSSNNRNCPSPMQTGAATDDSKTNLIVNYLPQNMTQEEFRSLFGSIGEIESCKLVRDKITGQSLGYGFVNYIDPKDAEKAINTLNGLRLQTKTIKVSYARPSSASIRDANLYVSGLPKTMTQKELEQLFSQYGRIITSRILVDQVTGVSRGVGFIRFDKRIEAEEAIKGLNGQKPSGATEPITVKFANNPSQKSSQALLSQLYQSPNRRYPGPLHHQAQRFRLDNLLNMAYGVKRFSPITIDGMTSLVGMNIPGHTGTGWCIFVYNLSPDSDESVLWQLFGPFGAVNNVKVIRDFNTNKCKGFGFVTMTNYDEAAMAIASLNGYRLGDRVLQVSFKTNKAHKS

B1: L4 (ssRNA)
RNA: GGGUCUUCCAGGUUAUUGUUUCAAC
B1: the binding result with His-HuD D [1] and with His-HuD A [2] was “binds” each time.

B2: L2 (ssRNA)
RNA: GGGUACAAUCAAAAACCAUCAGCAA
B2: the binding result with His-HuD D [1] (label: radiolabel (probe)) and with His-HuD A [2] (label: radiolabel (probe)) was “binds” throughout.

B3: Ins2S 5'UTR (S) (structured_RNA)
RNA: GGGAGCCCUAAGUGAUCCGCUACAAUCAAAAACCAUCAGCAAGCAGGAAGGUUAUUGUUUCAAC
As to B3, the binding result with His-HuD D [3] and in the data set with His-HuD A [4] was “binds” each time.

B4: Ins2L 5'UTR (L) (structured_RNA)
RNA: GGGAGCCCUAAGUGAUCCGCUACAAUCAAAAACCAUCAGCAAGCAGGAAGCCUAUCUUCCAGGUUAUUGUUUCAAC
As for B4, the binding result is recorded as “binds” with His-HuD D [5], “no binding” with GST-HuD B, “binds” in the data set with His-HuD A [6] and “no binding” with His-HuD B.

(Values after paper PMC5874046, “Interaction of HuDA and PABP at 5'UTR of mouse insulin2 regulates insulin biosynthesis”.)
